# Patent US20230416343A1
# Where two headings read alike, the source gives them in different places.
# How the values were obtained:
# [1] = biological target: SARS-CoV-2 Delta variant S protein expressed on HEK293 cells (SARS-CoV-2) (UniProt P0DTC2)
# [2] = biological target: SARS-CoV-2 Delta Plus variant S protein expressed on HEK293 cells (SARS-CoV-2) (UniProt P0DTC2)
# [3] = biological target: SARS-CoV-2 variant spike protein del 69-79 plus N439K on HEK293 cells (SARS-CoV-2) (UniProt P0DTC2)
# [4] = biological target: SARS-CoV-2 variant spike protein del 69-79 plus N501Y on HEK293 cells (SARS-CoV-2) (UniProt P0DTC2)
# [5] = biological target: SARS-CoV-2 variant spike protein del 69-79 plus N501Y and D614G on HEK293 cells (SARS-CoV-2) (UniProt P0DTC2)
# [6] = biological target: SARS-CoV-2 variant spike protein del 69-79 plus N439K on HEK293 cells (SARS-CoV-2) (UniProt P0DTC2); remark: listed apart in the source
# [7] = biological target: SARS-CoV-2 Delta variant S protein expressed on HEK293 cells (SARS-CoV-2) (UniProt P0DTC2); remark: listed apart in the source
substance,measurement,setting,value
S1D7270LALA antibody (STI-2020),EC50,[1],0.105 µg/mL
same,EC50,[2],0.187 µg/mL
same,EC50 (read off the curve),[3],0.07 µg/mL
same,EC50 (read off the curve),[4],0.09 µg/mL
same,EC50,[5],172 µg/mL
same,EC50,[6],70 µg/mL
same,EC50,[7],0.106 µg/mL
